# Assay results reported in patent US20100015650.
# B1: EphA4 (protein)
# chain: SRRRSKYSKAKQEADEEKHLNQGVRTYVDPFTYEDPNQAVREFAKEIDASCIKIEKVIGVGEFGEVCSGRLKVPGKREICVAIKTLKAGYTDKQRRDFLSEASIMGQFDHPNIIHLEGVVTKCKPVMIITEYMENGSLDAFLRKNDGRFTVIQLVGMLRGIGSGMKYLSDMSYVHRDLAARNILVNSNLVCKVSDFGMSRVLEDDPEAAYTTRGGKIPIRWTAPEAIAYRKFTSASDVWSYGIVMWEVMSYGERPYWDMSNQDVIKAIEEGYRLPPPMDCPIALHQLMLDCWQKERSDRPKFGQIVNMLDKLIRNPNSLKRTGTESSRPNTALLDPSSPEFSAVVSVGDWLQAIKMDRYKDNFTAAGYTTLEAVVHVNQEDLARIGITAITHQNKILSSVQAMRTQMQQMHGRMVPV
# B2: TIE2 (protein)
# chain: QLKRANVQRRMAQAFQNVREEPAVQFNSGTLALNRKVKNNPDPTIYPVLDWNDIKFQDVIGEGNFGQVLKARIKKDGLRMDAAIKRMKEYASKDDHRDFAGELEVLCKLGHHPNIINLLGACEHRGYLYLAIEYAPHGNLLDFLRKSRVLETDPAFAIANSTASTLSSQQLLHFAADVARGMDYLSQKQFIHRDLAARNILVGENYVAKIADFGLSRGQEVYVKKTMGRLPVRWMAIESLNYSVYTTNSDVWSYGVLLWEIVSLGGTPYCGMTCAELYEKLPQGYRLEKPLNCDDEVYDLMRQCWREKPYERPSFAQILVSLNRMLEERKTYVNTTLYEKFTYAGIDCSAEEAA
# B3: ROS (protein)
# chain: HRRLKNQKSAKEGVTVLINEDKELAELRGLAAGVGLANACYAIHTLPTQEEIENLPAFPREKLTLRLLLGSGAFGEVYEGTAVDILGVGSGEIKVAVKTLKKGSTDQEKIEFLKEAHLMSKFNHPNILKQLGVCLLNEPQYIILELMEGGDLLTYLRKARMATFYGPLLTLVDLVDLCVDISKGCVYLERMHFIHRDLAARNCLVSVKDYTSPRIVKIGDFGLARDIYKNDYYRKRGEGLLPVRWMAPESLMDGIFTTQSDVWSFGILIWEILTLGHQPYPAHSNLDVLNYVQTGGRLEPPRNCPDDLWNLMTQCWAQEPDQRPTFHRIQDQLQLFRNFFLNSIYKSRDEANNSGVINESFEGEDGDVICLNSDDIMPVALMETKNREGLNYMVLATECGQGEEKSEGPLGSQESESCGLRKEEKEPHADKDFCQEKQVAYCPSGKPEGLNYACLTHSGYGDGSD
# B4: BTK (protein)
# chain: AAVILESIFLKRSQQKKKTSPLNFKKRLFLLTVHKLSYYEYDFERGRRGSKKGSIDVEKITCVETVVPEKNPPPERQIPRRGEESSEMEQISIIERFPYPFQVVYDEGPLYVFSPTEELRKRWIHQLKNVIRYNSDLVQKYHPCFWIDGQYLCCSQTAKNAMGCQILENRNGSLKPGSSHRKTKKPLPPTPEEDQILKKPLPPEPAAAPVSTSELKKVVALYDYMPMNANDLQLRKGDEYFILEESNLPWWRARDKNGQEGYIPSNYVTEAEDSIEMYEWYSKHMTRSQAEQLLKQEGKEGGFIVRDSSKAGKYTVSVFAKSTGDPQGVIRHYVVCSTPQSQYYLAEKHLFSTIPELINYHQHNSAGLISRLKYPVSQQNKNAPSTAGLGYGSWEIDPKDLTFLKELGTGQFGVVKYGKWRGQYDVAIKMIKEGSMSEDEFIEEAKVMMNLSHEKLVQLYGVCTKQRPIFIITEYMANGCLLNYLREMRHRFQTQQLLEMCKDVCEAMEYLESKQFLHRDLAARNCLVNDQGVVKVSDFGLSRYVLDDEYTSSVGSKFPVRWSPPEVLMYSKFSSKSDIWAFGVLMWEIYSLGKMPYERFTNSETAEHIAQGLRLYRPHLASEKVYTIMYSCWHEKADERPTFKILLSNILDVMDEES
# B5: CSK (protein)
# chain: MSAIQAAWPSGTECIAKYNFHGTAEQDLPFCKGDVLTIVAVTKDPNWYKAKNKVGREGIIPANYVQKREGVKAGTKLSLMPWFHGKITREQAERLLYPPETGLFLVRESTNYPGDYTLCVSCDGKVEHYRIMYHASKLSIDEEVYFENLMQLVEHYTSDADGLCTRLIKPKVMEGTVAAQDEFYRSGWALNMKELKLLQTIGKGEFGDVMLGDYRGNKVAVKCIKNDATAQAFLAEASVMTQLRHSNLVQLLGVIVEEKGGLYIVTEYMAKGSLVDYLRSRGRSVLGGDCLLKFSLDVCEAMEYLEGNNFVHRDLAARNVLVSEDNVAKVSDFGLTKEASSTQDTGKLPVKWTAPEALREKKFSTKSDVWSFGILLWEIYSFGRVPYPRIPLKDVVPRVEKGYKMDAPDGCPPAVYEVMKNCWHLDAAMRPSFLQLREQLEHIKTHELHL
# B6: TYRO3 (protein)
# chain: LRKRRKETRFGQAFDSVMARGEPAVHFRAARSFNRERPERIEATLDSLGISDELKEKLEDVLIPEQQFTLGRMLGKGEFGSVREAQLKQEDGSFVKVAVKMLKADIIASSDIEEFLREAACMKEFDHPHVAKLVGVSLRSRAKGRLPIPMVILPFMKHGDLHAFLLASRIGENPFNLPLQTLIRFMVDIACGMEYLSSRNFIHRDLAARNCMLAEDMTVCVADFGLSRKIYSGDYYRQGCASKLPVKWLALESLADNLYTVQSDVWAFGVTMWEIMTRGQTPYAGIENAEIYNYLIGGNRLKQPPECMEDVYDLMYQCWSADPKQRPSFTCLRMELENILGQLSVLSASQDPLYINIERAEEPTAGGSLELPGRDQPYSGAGDGSGMGAVGGTPSDCRYILTPGGLAEQPGQAEHQPESPLNETQRLLLLQQGLLPHSSC
# How the values were obtained:
# [1] = biological target: T1, BRB1 tyrosine kinase substrate peptide
# T1 chain: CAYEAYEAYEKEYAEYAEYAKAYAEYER
protein,measurement,setting,value
B1,"Average Signal at 665 nm (TR-FRET kinase assay; kinase 2 nM, read 1 h after adding Eu-PT66 antibody)",[1],134000
same,"Average Signal at 665 nm (TR-FRET kinase assay; kinase 2 nM, read 18 h after adding Eu-PT66 antibody)",[1],117000
same,"Average Signal at 665 nm (TR-FRET kinase assay; kinase 2 nM, read 24 h after adding Eu-PT66 antibody)",[1],116000
same,Signal to Noise ratio with BRB1 Peptide (TR-FRET kinase assay; kinase 0.5 nM),[1],31.5
same,"Average Signal at 665 nm (TR-FRET kinase assay; kinase 2 nM, read 1 h after adding Eu-PT66 antibody)",poly-EY,89000
same,"Average Signal at 665 nm (TR-FRET kinase assay; kinase 2 nM, read 18 h after adding Eu-PT66 antibody)",poly-EY,35000
same,"Average Signal at 665 nm (TR-FRET kinase assay; kinase 2 nM, read 24 h after adding Eu-PT66 antibody)",poly-EY,30100
same,"Average Signal at 665 nm (TR-FRET kinase assay; kinase 2 nM, read 1 h after adding Eu-PT66 antibody)",poly-EAY,110000
same,"Average Signal at 665 nm (TR-FRET kinase assay; kinase 2 nM, read 18 h after adding Eu-PT66 antibody)",poly-EAY,51400
same,"Average Signal at 665 nm (TR-FRET kinase assay; kinase 2 nM, read 24 h after adding Eu-PT66 antibody)",poly-EAY,45800
B2,Signal to Noise ratio with BRB1 Peptide (TR-FRET kinase assay; kinase 0.5 nM),[1],17.7
B3,Signal to Noise ratio with BRB1 Peptide (TR-FRET kinase assay; kinase 0.25 nM),[1],24.5
B4,Signal to Noise ratio with BRB1 Peptide (TR-FRET kinase assay; kinase 0.25 nM),[1],6.8
B5,Signal to Noise Ratio with BRB1 Peptide (TR-FRET kinase assay; kinase 20 nM),[1],27.2
B6,Signal to Noise ratio with BRB1 Peptide (TR-FRET kinase assay; kinase 0.25 nM),[1],6.1
